{"source": "patent US20220396819A1", "about": "“METHOD FOR PRODUCING PEPTIDE HAVING PHYSIOLOGICAL ACTIVITY, AND PEPTIDE COMPRISING SHORT LINKER” (priority 2019, published 2022)", "molecules": {"B1": {"name": "rhTPO: recombinant human TPO (rhTPO, Peprotech) (protein)", "chain": "SPAPPACDLRVLSKLLRDSHVLHSRLSQCPEVHPLPTPVLLPAVDFSLGEWKTQMEETKAQDILGAVTLLLEGVMAARGQLGPTCLSSLLGQLSGQVRLLLGALQSLLGTQLPPQGRTTAHKDPNAIFLSFQHLLRGKVRFLMLVGGSTLCVRRAPPTTAVPSRTSLVLTLNEL"}}, "key": {"[1]": {"test_system": "HEL cells", "assay": "Signal characteristics, Proteome Profiler Human Phospho-Kinase Array Kit, HEL cells", "type": "cell-based", "conditions": "100 ng/mL rhTPO or culture supernatant 1/100 to 1/1000, 20 minutes, FIG. 43", "experimental": "The signal characteristics of the TPO-PAS dimer peptide were evaluated using Proteome Profiler Human Phospho-Kinase Array Kit (R&D Systems).\n(§1) 1,000,000 HEL cells were cultured in RPMI 1640 medium without FBS (Thermo Fisher Scientific) for 24 hours and starved. The cells were stimulated for 20 minutes in RPMI 1640 medium supplemented with 100 ng/mL recombinant human TPO (rhTPO, Peprotech) or a culture supernatant containing TPO2-PAS8 at a dilution of 1/100 to 1/1000. As a negative control, PBS was added, and stimulation was performed for 20 minutes (Mock group). After removing the medium and washing the cells once with PBS, the cells were lysed by adding 200 μL of Lysis buffer 17 (R&D Systems) supplemented with Protease inhibitor cocktail (Nacalai Tesque). The lysate solution was centrifuged at 14,000 G for 5 minutes to obtain the supernatant as lysate.\nThe lysate was analyzed using Proteome Profiler Human Phospho-Kinase Array Kit. Amersham Imager 600 (GE Healthcare) was used to detect chemiluminescence. The chemiluminescence intensity of the dots was quantified using ImageJ. […] The signal pathway stimulated by rhTPO is mainly the JAK2/Stat3,5 pathway, and all of the proteins with increased phosphorylation levels are included in the pathway."}, "[2]": {"test_system": "HEL cells", "assay": "Thrombopoietin-like activity, CREB phosphorylation levels in HEL cells (Phospho-CREB (Ser133) ELISA)", "type": "cell-based, human", "conditions": "dimer peptide 20-40 ng/mL or rhTPO 100 ng/mL, 20 minutes, Mock = PBS, FIG. 90", "experimental": "as §1, with “The thrombopoietin-like activity of the TPO-PAS dimer peptide variant was evaluated by quantification of CREB phosphorylation levels in HEL cells, a human leukemia-derived blood cell line. 200,000” for “1,000,000”, “each dimer peptide of TPO2-PAS8, TPO2-PAS49, TPO2-PAS100, or TPO2-GS8 diluted to” for “TPO2-PAS8 at”, “final concentration” for “dilution”, “20-40 ng/mL.” for “1/100 to 1/1000.”, “100” for “200”, “lysate. Note that TPO2-PAS8 was obtained according to the method described in Example 23.” for “lysate.”\nPhospho-CREB (Ser133) and Total CREB ELISA kit (RayBio) were used to quantify phosphorylated CREB (pCREB) levels in the lysates. […] Phosphorylation levels were quantified by adding 50 μL of Stop solution and measuring the absorbance at a wavelength of 450 nm on a microplate."}}}
{"molecule": "B1", "values": [{"measurement": "phosphorylation levels of signal proteins compared with PBS (Mock group)", "setting": "[1]", "value": "increased in phosphorylation levels of Erk, CREB, Stat3, Stat5a, and Stat5b"}, {"measurement": "pCREB level (relative CREB phosphorylation level)", "setting": "[2]", "value": 143, "unit": "%"}]}
